Laboratory results from paper PMC10275869 (Nature Communications, 2023).

B1: 1F5 (human IgG1) (antibody, V domains shown)
VH: DVQLQESGPGLVKPSQSLSLTCSVTGYSITSDYYWNWIRQFPGNKLEWMGYVTYDGSNNYNPSLKNRISITRDSSKNQFFLKLNSVISEDTATYYCARFGSSYWAMDYWGQGTSLTVSS
VL: QIVLTQSPAIMSASLGEAITLTCSASSSVSYMHWYQQKSGTSPKLLIYSTSNLASGVPSRFSGSGSGTFYSLTISSVEAEDAADYYCHQWYSYPWTFGGGTKLEIK
B2: mAb66 (human IgG1) (antibody, V domains shown)
VH: ETGSGGGLVKPGGTLTLTCKASGFTLSSYWMCWVRQAPGKGLELIACLYTNGATTWYASWVNGRFAISRSTSRNTVDLNMTSLTAADTATYFCARGSGSGWSWFNIWGPGTLVTVSS
VL: TGVMTQTPASVEAAVGGTVTIKCQASQNIISSLAWYQQKPGQRPKLLIYYASTLASGVPSRFKGSGSGTQFTLTISDLECADAATYYCQSYYYSGITYGNAFGGGTEVVVK
B3: 5B3 (human IgG1) (antibody, V domains shown)
VH: EVQLVESGGGLVKPGGSLKLSCAASGFTFSSYDMSWVRQTPEKRLEWVAMISSGGSYSYYPDSVKGRFTISRDNAKNTLYLQMSSLRSEDTAMYYCARQGDYAWFAYWGQGTLVTVSS
VL: DIQMTQSPASQSASLGESVTITCLASQTIGTWLAWYQQKPGKSPQLLIYAATSLADGVPSRFSGSGSGTKFSFKISSLQAEDFVSYYCQQFYSTPFTFGGGTKLEIK
B4: 12B2 (human IgG1) (antibody, V domains shown)
VH: QVQLKESGPGLVAPSQSLSITCTVSGFSLASYGVHWVRQPPGKGLEWLGVIWTGGSTNYNSALMSRLSINRDNSKSQVFLKLNSLQTDDTAIYYCARDRGYGYGGFAYWGQGTLVTVSA
VL: DIQMTQSPASLSASVGETVTITCRASENIYSYLAWYQHKQGKSPQLLVYNAKSLAEGVPSRFSGSGSGTQFSLKINSLQPEDFGSYYCQHHYGTPWTFGGGTKLEIK

Key:
[1] = biological target: T1, prefusion clamp2 stabilized NiV F (Nipah virus, strain  (Q9IH63 …, UniProt Q9IH63, stabilised)); experiment: ELISA; details: both partners purified
T1 construct: also called Nipah virus F

[2] = biological target: LayV F clamp2 (prefusion Langya virus fusion glycoprotein ectodomain stabilised with the clamp2 molecular … (Langya virus (GenBank UUV47205.1), stabilised, N-linked glycans at N65 and N459)); experiment: ELISA; details: both partners purified

| Binder | binding result [1] | binding result [2] |
| --- | --- | --- |
| B1 | binds | no binding (tested: 50 μg/mL) |
| B2 | binds | no binding (tested: 50 μg/mL) |
| B3 | binds | no binding (tested: 50 μg/mL) |
| B4 | binds | no binding (tested: 50 μg/mL) |
